Measurements reported in patent US20240091345A1.

Key:
[1] = molecular target: Recombinant gI protein (~46 kDa) from HSV-2 (BMP1052b or BMP1292) (HSV-2); assay: indirect ELISA on coated HSV-2 gI, one mouse
[2] = molecular target: Recombinant gE/gI heterodimer protein (BMP1299) from HSV-1 (HSV-1) (UniProt P06487); assay: indirect ELISA on coated HSV-1 gE/gI
[3] = molecular target: Recombinant gE protein (~51 kDa) from HSV-2 (BMP1049 or BMP1291) (HSV-2); assay: indirect ELISA on coated HSV-2 gE
[4] = molecular target: Recombinant gI protein (~46 kDa) from HSV-2 (BMP1052b or BMP1292) (HSV-2); assay: indirect ELISA on coated HSV-2 gI

Sequence of UniProt P06487 (P06487 whole entry, one chain of several): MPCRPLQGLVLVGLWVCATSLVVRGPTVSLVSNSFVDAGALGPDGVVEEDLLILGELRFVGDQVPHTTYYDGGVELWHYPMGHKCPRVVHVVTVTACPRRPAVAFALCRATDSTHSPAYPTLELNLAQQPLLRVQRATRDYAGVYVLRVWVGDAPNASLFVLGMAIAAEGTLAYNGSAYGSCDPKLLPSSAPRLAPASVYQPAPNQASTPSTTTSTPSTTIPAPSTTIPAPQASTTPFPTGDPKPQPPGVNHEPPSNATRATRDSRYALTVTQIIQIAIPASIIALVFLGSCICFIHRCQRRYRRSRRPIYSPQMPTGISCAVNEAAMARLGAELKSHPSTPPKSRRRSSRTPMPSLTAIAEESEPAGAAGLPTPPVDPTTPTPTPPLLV

“serum of CB6F1 mice injected with NaCl 150 mM (Example 1, group 6, negative control) (antibody)” gave an IgG titer [1] of 135 EU/mL.
Work on “serum of CB6F1 mice injected with NaCl 150 mM (Example 2, group 7, negative control) (antibody)” yielded an IgG titer [2] of 11 EU/mL.
“serum of CB6F1 mice injected with NaCl 150 mM (Example 3, group 7, negative control) (antibody)” showed an IgG titer [3] of 17 EU/mL and an IgG titer [4] of 17 EU/mL.
